Experimental data from patent publication US20250027073A1.
“And” between values parts separate entries of the source, which are not always exact repeats. Equal entries are not always repeated. Where two headings read alike, the source gives them in different places.

What was measured:
[1] = biological target: NY-ESO-1 peptide on HLA-A*02:01 (human)
[2] = biological target: peptide on HLA-A*02:01 (human)
[3] = biological target: peptide on HLA-A*02:01 (human); remark: listed apart in the source
[4] = biological target: NY-ESO-1 TCR, clone 1G4 mutated version (a95:LY) with high affinity, on Jurkat T cells
[5] = biological target: NY-ESO-1 TCR, clone 1G4 mutated version (a95:LY) with high affinity, on Jurkat T cells; remark: listed apart in the source
[6] = biological target: NY-ESO-1 TCR, clone 1G4 mutated version (a95:LY) with high affinity, on Jurkat T cells; remark: listed apart in the source
[7] = biological target: pp65495-503 tetramer-positive primary human T cells (their TCRs)
[8] = biological target: CMV-pp65495-503-TCR, on Jurkat T cells
[9] = biological target: CMV-pp65495-503-TCR, on Jurkat T cells; remark: listed apart in the source
[10] = biological target: NY-ESO-1 TCR, clone 1G4 mutated version (a95:LY) with high affinity, on Jurkat T cells; assay: cell-based or functional assay
[11] = biological target: CMV-pp65495-503-TCR, on Jurkat T cells; assay: cell-based or functional assay
[12] = biological target: pp65495-503 tetramer-positive primary human T cells (their TCRs); remark: listed apart in the source
[13] = biological target: CMV-pp65495-503-TCR, on Jurkat T cells; remark: listed apart in the source
[14] = biological target: Flu-m158-66-TCR, on Jurkat T cells
[15] = biological target: anti-SAR2-RBD BCR on B cells (RBD antibody of PDB 7BWJ with human IgG1 Fc and PDGFR TM); assay: flow cytometry; GFP viruses displaying RBD on RBD-BCR+ B cells
[16] = biological target: Anti-Her2 BCR on B cells (from Trastuzumab vector, with PDGFR TM); assay: flow cytometry; GFP viruses displaying HER2 on HER2-BCR+ B cells

Substance: NY-ESO-1 TCR, clone 1G4, wild-type (1G4 wt)
- Kd [1]: 10.8 µM and 84.9 µM
- Kd [2]: 10.8 µM and 84.9 µM
- Kd [3]: 10.8 µM and 84.9 µM

Substance: NY-ESO-1157-165 (…) presented by HLA-A0201, single-chain trimer of pMHC displayed on the lentiviral surface (from UniProt P61769 21-119) (peptide-MHC)
- percent of antigen+ cells matched with the corresponding TCR sequence [4]: 97.4%
- percent of T cells GFP+ [5]: > 87%
- percent of T cells labeled (GFP+) [5]: 88.2%
- percent of TCR-T cells stained [6]: 95.7%

Substance: CMV pp65495-503 (…) presented by HLA-A0201, single-chain trimer of pMHC displayed on the lentiviral surface (from UniProt P61769 21-119) (peptide-MHC)
- percent of tetramer-positive T cells labeled [7]: 83%
- percent of tetramer-positive T cells recovered [7]: 98%
- percent of tetramer positive cells that were GFP+ [8]: > 90%
- percent of antigen+ cells matched with the corresponding TCR sequence [9]: 99.8%
- GFP transgene expression after infection (cargo delivery) [10]: 0.22%
- GFP transgene expression after infection (cargo delivery) [11]: 82%
- depletion of on-target T cells after HSV-TK gene delivery and GCV treatment, against GFP gene delivery [11]: 8 fold
- percent of tetramer+ T cells labeled [12]: 99%
- percent of T cells GFP+ [13]: > 87%

Substance: HPV16 E782-91 peptide presented by HLA-A2, single-chain trimer of pMHC displayed on the lentiviral s (from UniProt P03129 82-91; P61769 21-119) (peptide-MHC)
- percent of T cells labeled (GFP+) [5]: 1%
- percent of T cells labeled (GFP+) [13]: 1%
- percent of T cells labeled (GFP+) [14]: 1%

Substance: Receptor Binding Domain (RBD) from SARS-CoV-2 spike protein fused with ICAM1 TM domain, displayed on (from UniProt P0DTC2 319-541)
- percent of B cells labeled (GFP+) [15]: 88%

Substance: truncated Her2 (a1-a700) with its native TM domain, displayed on the lentiviral surface (from UniProt P04626 23-700) (receptor)
- percent of B cells detected (GFP+) [16]: 76%
